The text below walks through data of publication PMC4908976 (Science signaling, 2016).

This assay deals with T1, Gβγ on affinity beads (Gβ with 3xHA-tagged Gγ) (S. cerevisiae, UniProt P18851 1-423; P18852 1-110).
T1 sequence (looked up) 1: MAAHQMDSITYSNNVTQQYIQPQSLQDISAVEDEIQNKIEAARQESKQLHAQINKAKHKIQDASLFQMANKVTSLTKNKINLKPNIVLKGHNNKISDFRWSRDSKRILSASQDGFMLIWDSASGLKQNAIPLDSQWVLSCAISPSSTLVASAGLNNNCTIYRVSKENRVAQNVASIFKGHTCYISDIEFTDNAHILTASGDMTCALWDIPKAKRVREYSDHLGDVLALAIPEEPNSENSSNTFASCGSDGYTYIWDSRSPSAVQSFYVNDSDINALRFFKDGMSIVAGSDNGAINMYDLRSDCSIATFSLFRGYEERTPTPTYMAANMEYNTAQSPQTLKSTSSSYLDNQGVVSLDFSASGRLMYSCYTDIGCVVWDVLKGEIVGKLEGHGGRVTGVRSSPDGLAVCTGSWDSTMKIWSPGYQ
T1 sequence (looked up) 2: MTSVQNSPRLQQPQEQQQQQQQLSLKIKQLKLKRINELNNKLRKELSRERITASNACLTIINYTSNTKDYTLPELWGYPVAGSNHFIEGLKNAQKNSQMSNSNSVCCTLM
Put plainly: affinity purification with mass spectrometry.

B1: myc-tagged Yck1 (yeast casein kinase 1) (enzyme, S. cerevisiae, UniProt P23291 1-538, looked up)
chain: MSMPIASTTLAVNNLTNINGNANFNVQANKQLHHQAVDSPARSSMTATTAANSNSNSSRDDSTIVGLHYKIGKKIGEGSFGVLFEGTNMINGVPVAIKFEPRKTEAPQLRDEYKTYKILNGTPNIPYAYYFGQEGLHNILVIDLLGPSLEDLFDWCGRKFSVKTVVQVAVQMITLIEDLHAHDLIYRDIKPDNFLIGRPGQPDANNIHLIDFGMAKQYRDPKTKQHIPYREKKSLSGTARYMSINTHLGREQSRRDDMEALGHVFFYFLRGHLPWQGLKAPNNKQKYEKIGEKKRSTNVYDLAQGLPVQFGRYLEIVRSLSFEECPDYEGYRKLLLSVLDDLGETADGQYDWMKLNDGRGWDLNINKKPNLHGYGHPNPPNEKSRKHRNKQLQMQQLQMQQLQQQQQQQQYAQKTEADMRNSQYKPKLDPTSYEAYQHQTQQKYLQEQQKRQQQQKLQEQQLQEQQLQQQQQQQQQLRATGQPPSQPQAQTQSQQFGARYQPQQQPSAALRTPEQHPNDDNSSLAASHKGFFQKLGCC
Consider B1, for which the “Gβ/Gβ^P− ratio (total MS intensity on Gβγ beads over that on Gβ^P−γ beads)” value came out at 2.25.

B2: endogenous Yck2 (untagged native protein) (enzyme, UniProt P23292 1-546, looked up)
chain: MSQVQSPLTATNSGLAVNNNTMNSQMPNRSNVRLVNGTLPPSLHVSSNLNHNTGNSSASYSGSQSRDDSTIVGLHYKIGKKIGEGSFGVLFEGTNMINGLPVAIKFEPRKTEAPQLKDEYRTYKILAGTPGIPQEYYFGQEGLHNILVIDLLGPSLEDLFDWCGRRFSVKTVVQVAVQMITLIEDLHAHDLIYRDIKPDNFLIGRPGQPDANKVHLIDFGMAKQYRDPKTKQHIPYREKKSLSGTARYMSINTHLGREQSRRDDMEAMGHVFFYFLRGQLPWQGLKAPNNKQKYEKIGEKKRLTNVYDLAQGLPIQFGRYLEIVRNLSFEETPDYEGYRMLLLSVLDDLGETADGQYDWMKLNGGRGWDLSINKKPNLHGYGHPNPPNEKSKRHRSKNHQYSSPDHHHHYNQQQQQQQAQAQAQAQAQAKVQQQQLQQAQAQQQANRYQLQPDDSHYDEEREASKLDPTSYEAYQQQTQQKYAQQQQKQMQQKSKQFANTGANGQTNKYPYNAQPTANDEQNAKNAAQDRNSNKSSKGFFSKLGCC
B2: the “Gβ/Gβ^P− ratio (total MS intensity on Gβγ beads over that on Gβ^P−γ beads)” value was 2.09.
